In patent US20260176346A1:

Target: recombinant human VEGF (R&D Systems, 293-VE-010) (human) (UniProt P15692)
Assay: Octet HTX biosensor (BLI); positive control antibody at 10 ug/mL in 1x kinetics buffer; recombinant human VEGF in 1:2 series, 200 nM to 3.125 nM

Sequence of UniProt P15692 (P15692 other isoform, or with tags, fused parts or gaps limits assumed): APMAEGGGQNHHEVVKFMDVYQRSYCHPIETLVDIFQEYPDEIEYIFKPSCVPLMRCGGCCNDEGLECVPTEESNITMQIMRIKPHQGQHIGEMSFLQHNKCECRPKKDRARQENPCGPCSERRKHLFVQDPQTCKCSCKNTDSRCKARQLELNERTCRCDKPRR

## mouse anti-human VEGF monoclonal antibody (anti-hVEGF MmAb; R&D Systems, MAB293-100)
  Kd: 0.229 nM
  koff: 7.77e-05 s⁻¹
  kon: 340000 M⁻¹ s⁻¹
